For one molecule, Kd results are on record in paper PMC9897555 (2023).

The target in this experiment is Spike protein S1 C-terminal domain 319-674 (Severe acute respiratory syndrome …, UniProt P0DTC2). The experiment can be described thus: flow.

B1: LRRC15 (protein)
chain: YHGCPSECTCSRASQVECTGARIVAVPTPLPWNAMSLQILNTHITELNESPFLNISALIALRIEKNELSRITPGAFRNLGSLRYLSLANNKLQVLPIGLFQGLDSLESLLLSSNQLLQIQPAHFSQCSNLKELQLHGNHLEYIPDGAFDHLVGLTKLNLGKNSLTHISPRVFQHLGNLQVLRLYENRLTDIPMGTFDGLVNLQELALQQNQIGLLSPGLFHNNHNLQRLYLSNNHISQLPPSVFMQLPQLNRLTLFGNSLKELSPGIFGPMPNLRELWLYDNHISSLPDNVFSNLRQLQVLILSRNQISFISPGAFNGLTELRELSLHTNALQDLDGNVFRMLANLQNISLQNNRLRQLPGNIFANVNGLMAIQLQNNQLENLPLGIFDHLGKLCELRLYDNPWRCDSDILPLRNWLLLNQPRLGTDTVPVCFSPANVRGQSLIIINVNVAVPSVHVPEVPSYPETPWYPDTPSYPDTTSVSSTTELTSPVEDYTDLTTIQVTDDRSVWGMTQAQSG
As a reminder, the Kd is the constant that tells how readily two partners part at equilibrium. Higher therefore signals weaker binding. The molecule B1 displayed a Kd of approximately 260 nM.
